Laboratory results as given in patent US20180244760A1 (UNIVERSITY OF MARYLAND BALTIMORE, published 2018).

B1: ABAB-IgG1 tetra-specific, octameric binding agent (bispecific antibody)
heavy: not shown
light: QLQLVETGGGLVQPGGSLRLSCAASGFTFSDYVMTWVRQAPGKGPEWIATINTDGSTMRDDSTKGRFTISRDNAKNTLYLQMTSLKPEDTALYYCARGRVISASAIRGAVRGPGTQVTVSSGGGGSGGGGSGGGGSQVQLVESGGGLVQTGGSLRLSCASSGSIAGFETVTWSRQAPGKSLQWVASMTKTNNEIYSDSVKGRFIISRDNAKNTVYLQMNSLKPEDTGVYFCKGPELRGQGIQVTVSSRTVAAPSVFIFPPSDEQLKSGTASVVCLLNNFYPREAKVQWKVDNALQSGNSQESVTEQDSKDSTYSLSSTLTLSKADYEKHKVYACEVTHQGLSSPVTKSFNRGEC
notes: also called IgG-ABAB; IgG-ABBA
B2: VHH peptide monomer E3 (VHH)
VHH: QVQLVESGGGLVQTGGSLRLSCASSGSIAGFETVTWSRQAPGKSLQWVASMTKTNNEIYSDSVKGRFIISRDNAKNTVYLQMNSLKPEDTGVYFCKGPELRGQGIQVTVSS
notes: also called VHH E3

Tests used:
[1] = target: T1, Clostridium difficile toxin B (TcdB) (Clostridium difficile, UniProt P18177 2-2366); assay: sandwich ELISA: TcdB coated, Habab titrated, TcdA at 40 ng/ml detected
T1 construct: also called TxB

[2] = target: T1, Clostridium difficile toxin B (TcdB); assay: cell-based or functional assay
[3] = target: T1, Clostridium difficile toxin B (TcdB); assay: ELISA, plate coated with 1 ug/ml TcdB

T1 sequence (P18177 2-2366 limits assumed): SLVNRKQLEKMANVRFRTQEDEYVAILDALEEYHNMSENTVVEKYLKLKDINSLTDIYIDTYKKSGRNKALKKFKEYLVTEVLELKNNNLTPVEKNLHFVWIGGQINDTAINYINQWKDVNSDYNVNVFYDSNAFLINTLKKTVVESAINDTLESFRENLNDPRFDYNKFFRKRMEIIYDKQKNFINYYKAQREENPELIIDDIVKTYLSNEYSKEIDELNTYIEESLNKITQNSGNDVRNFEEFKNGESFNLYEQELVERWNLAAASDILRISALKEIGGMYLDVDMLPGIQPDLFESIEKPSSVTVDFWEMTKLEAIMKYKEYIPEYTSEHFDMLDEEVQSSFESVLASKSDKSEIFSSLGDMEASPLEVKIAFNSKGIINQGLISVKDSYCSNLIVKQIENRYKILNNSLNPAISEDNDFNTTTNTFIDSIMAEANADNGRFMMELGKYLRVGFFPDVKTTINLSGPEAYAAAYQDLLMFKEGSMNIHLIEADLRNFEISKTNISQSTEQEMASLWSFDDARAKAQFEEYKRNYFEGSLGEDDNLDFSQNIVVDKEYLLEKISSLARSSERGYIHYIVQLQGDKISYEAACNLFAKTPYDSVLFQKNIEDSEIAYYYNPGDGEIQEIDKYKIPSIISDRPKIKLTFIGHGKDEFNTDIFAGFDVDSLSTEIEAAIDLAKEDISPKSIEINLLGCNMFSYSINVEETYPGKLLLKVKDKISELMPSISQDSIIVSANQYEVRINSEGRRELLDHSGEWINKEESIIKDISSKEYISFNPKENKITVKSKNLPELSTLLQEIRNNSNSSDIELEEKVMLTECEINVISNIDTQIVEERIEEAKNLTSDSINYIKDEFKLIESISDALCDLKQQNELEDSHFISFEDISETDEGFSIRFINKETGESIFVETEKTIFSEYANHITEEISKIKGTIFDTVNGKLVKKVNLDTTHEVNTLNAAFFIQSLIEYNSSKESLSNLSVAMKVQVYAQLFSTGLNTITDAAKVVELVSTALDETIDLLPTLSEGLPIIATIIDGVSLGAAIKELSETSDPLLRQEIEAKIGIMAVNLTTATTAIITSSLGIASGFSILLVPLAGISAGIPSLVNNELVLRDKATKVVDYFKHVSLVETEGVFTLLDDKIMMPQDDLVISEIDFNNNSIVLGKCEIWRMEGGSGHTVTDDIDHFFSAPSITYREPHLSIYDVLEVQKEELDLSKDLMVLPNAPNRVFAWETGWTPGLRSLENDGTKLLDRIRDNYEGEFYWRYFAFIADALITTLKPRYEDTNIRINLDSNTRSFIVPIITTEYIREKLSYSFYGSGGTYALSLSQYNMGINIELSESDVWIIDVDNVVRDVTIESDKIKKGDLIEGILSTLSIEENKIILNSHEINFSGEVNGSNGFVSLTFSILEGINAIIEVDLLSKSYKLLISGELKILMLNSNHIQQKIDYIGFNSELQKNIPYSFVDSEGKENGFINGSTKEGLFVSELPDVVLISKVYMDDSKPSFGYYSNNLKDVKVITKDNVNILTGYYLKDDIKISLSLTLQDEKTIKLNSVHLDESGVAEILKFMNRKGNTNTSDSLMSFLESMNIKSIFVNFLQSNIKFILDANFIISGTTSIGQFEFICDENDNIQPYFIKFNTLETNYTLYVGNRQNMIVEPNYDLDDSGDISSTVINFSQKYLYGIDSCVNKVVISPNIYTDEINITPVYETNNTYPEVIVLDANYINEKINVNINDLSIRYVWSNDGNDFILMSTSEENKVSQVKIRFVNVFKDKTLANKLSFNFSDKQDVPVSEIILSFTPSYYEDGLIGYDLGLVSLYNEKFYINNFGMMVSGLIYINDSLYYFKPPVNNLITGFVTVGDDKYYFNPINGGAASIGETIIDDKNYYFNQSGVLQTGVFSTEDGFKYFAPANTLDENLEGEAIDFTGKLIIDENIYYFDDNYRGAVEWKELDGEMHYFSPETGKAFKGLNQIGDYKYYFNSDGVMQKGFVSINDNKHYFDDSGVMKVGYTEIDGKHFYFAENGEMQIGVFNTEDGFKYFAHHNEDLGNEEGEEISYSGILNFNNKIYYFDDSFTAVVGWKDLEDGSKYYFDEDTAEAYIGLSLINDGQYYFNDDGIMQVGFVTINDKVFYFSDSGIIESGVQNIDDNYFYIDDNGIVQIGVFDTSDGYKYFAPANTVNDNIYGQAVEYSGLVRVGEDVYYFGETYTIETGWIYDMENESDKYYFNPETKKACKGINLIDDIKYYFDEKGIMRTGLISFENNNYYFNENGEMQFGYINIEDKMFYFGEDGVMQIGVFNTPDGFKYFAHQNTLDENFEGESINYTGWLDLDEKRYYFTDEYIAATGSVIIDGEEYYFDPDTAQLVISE

Binder | EC50 (read off the curve) [1] [ng/mL] | neutralization of the TcdB cytopathic effect on Vero cells, fold potency over the Merck antibody [2] [fold] | EC50 (read off the curve) [3] [ng/mL]
B1 | ~50 | ≥ 1000 | 
B2 |  |  | ~10
